# Results from ChEMBL document CHEMBL1275330, “Rational design, synthesis, and evaluation of new selective inhibitors of microbial class II (zinc dependent) fructose bis-phosphate aldolases” (J Med Chem, 2010).
# Tests used:
# [1] = substrate: O=C(COP(=O)(O)O)N(O)CCCCOP(=O)(O)O; settings: Candida albicans
# [2] = substrate: CCCCCCCCCCCC(=O)OCCCCN(O)C(=O)COP(=O)(O)O; settings: Yersinia pestis
# [3] = substrate: O=C(COP(=O)(O)O)N(O)CCCOP(=O)(O)O; settings: Oryctolagus cuniculus
# [4] = substrate: O=C(COP(=O)(O)O)N(O)CCCCOP(=O)(O)O; settings: Oryctolagus cuniculus
# [5] = substrate: CCCCCCCCCCCC(=O)OCCCCN(O)C(=O)COP(=O)(O)O; settings: Mycobacterium tuberculosis
# [6] = substrate: CCCCCCCCCCCC(=O)OCCCCN(O)C(=O)COP(=O)(O)O; settings: Helicobacter pylori
# [7] = substrate: O=C(COP(=O)(O)O)N(O)CCCCOP(=O)(O)O; settings: Helicobacter pylori
protein,measurement,setting,value
"Fructose-bisphosphate aldolase (Candida albicans (strain SC5314 / ATCC MYA-2876) (Yeast)), Q9URB4 (protein) MAPPAVLSKSGVIYGKDVKDLFDYAQEKGFAIPAINVTSSSTVVAALEAARDNKAPIILQTSQGGAAYFAGKGVDNKDQAASIAGSIAAAHYIRAIAPTYGIPVVLHTDHCAKKLLPWFDGMLKADEEFFAKTGTPLFSSHMLDLSEETDDENIATCAKYFERMAKMGQWLEMEIGITGGEEDGVNNEHVEKDALYTSPETVFAVYESLHKISPNFSIAAAFGNVHGVYKPGNVQLRPEILGDHQVYAKKQIGTDAKHPLYLVFHGGSGSTQEEFNTAIKNGVVKVNLDTDCQYAYLTGIRDYVTNKIEYLKAPVGNPEGADKPNKKYFDPRVWVREGEKTMSKRIAEALDIFHTKGQL",Km,[1],100 µM
"Fructose-bisphosphate aldolase class II (Yersinia pestis), A0A380PJR2 (protein) MSKIFDFVKPGVITGDDVQKVFAVAKENNFALPAVNCVGTDSINAVLETAAKVRAPVIVQFSNGGAAFIAGKGVKTDAPQGAAILGAISGAHHVHQMAEHYGVPVILHTDHCAKKLLPWLDGLLDAGEKHFAATGKPLFSSHMIDLSEESLEENIEICSKYLTRMSKIGMTLEIELGCTGGEEDGVDNSHMDASSLYTQPQDVDYAYEKLNAISPRFTIAASFGNVHGVYKPGNVKLTPTILRDSQDYVSKKHNLPHNSLNFVFHGGSGSTAEEIKEAVSYGVVKMNIDTDTQWATWEGILNYYKKNEGYLQGQLGNPEGADKPNKKYYDPRVWLRAAQVTMITRLELAFKELNAIDVL",Km,[2],0.234 µM
"Fructose-bisphosphate aldolase A (Oryctolagus cuniculus), P00883 (protein) MPHSHPALTPEQKKELSDIAHRIVAPGKGILAADESTGSIAKRLQSIGTENTEENRRFYRQLLLTADDRVNPCIGGVILFHETLYQKADDGRPFPQVIKSKGGVVGIKVDKGVVPLAGTNGETTTQGLDGLSERCAQYKKDGADFAKWRCVLKIGEHTPSALAIMENANVLARYASICQQNGIVPIVEPEILPDGDHDLKRCQYVTEKVLAAVYKALSDHHIYLEGTLLKPNMVTPGHACTQKYSHEEIAMATVTALRRTVPPAVTGVTFLSGGQSEEEASINLNAINKCPLLKPWALTFSYGRALQASALKAWGGKKENLKAAQEEYVKRALANSLACQGKYTPSGQAGAAASESLFISNHAY",Km,[3],264 µM
same,Km,[4],15 µM
"Fructose-bisphosphate aldolase (Mycobacterium tuberculosis), P9WQA3 (protein) MPIATPEVYAEMLGQAKQNSYAFPAINCTSSETVNAAIKGFADAGSDGIIQFSTGGAEFGSGLGVKDMVTGAVALAEFTHVIAAKYPVNVALHTDHCPKDKLDSYVRPLLAISAQRVSKGGNPLFQSHMWDGSAVPIDENLAIAQELLKAAAAAKIILEIEIGVVGGEEDGVANEINEKLYTSPEDFEKTIEALGAGEHGKYLLAATFGNVHGVYKPGNVKLRPDILAQGQQVAAAKLGLPADAKPFDFVFHGGSGSLKSEIEEALRYGVVKMNVDTDTQYAFTRPIAGHMFTNYDGVLKVDGEVGVKKVYDPRSYLKKAEASMSQRVVQACNDLHCAGKSLTH",Km,[5],0.31 µM
"Fructose-bisphosphate aldolase (Helicobacter pylori (strain ATCC 700392 / 26695) (Campylobacterpylori)), P56109 (protein) MLVKGNEILLKAHKEGYGVGAFNFVNFEMLNAIFEAGNEENSPLFIQTSEGAIKYMGIDMAVGMVKTMCERYPHIPVALHLDHGTTFESCEKAVKAGFTSVMIDASHHAFEENLELTSKVVKMAHNAGVSVEAELGRLMGIEDNISVDEKDAVLVNPKEAEQFVKESQVDYLAPAIGTSHGAFKFKGEPKLDFERLQEVKRLTNIPLVLHGASAIPDNVRKSYLDAGGDLKGSKGVPFEFLQESVKGGINKVNTDTDLRIAFIAEVRKVANEDKSQFDLRKFFSPAQLALKNVVKERMKLLGSANKI",Km,[6],4 µM
same,Km,[7],0.07 µM
